In patent US6984501:

Biological target: human Kv2.1 (human) (UniProt Q14721)
Experiment: cell-based or functional assay

Substance: human Kv2.1 (from UniProt Q14721 1-858)
- V0.5 of the activation voltage curve (Boltzmann fit of G/Gmax), whole-cell patch clamp on CHO cells: 10.8 mV
- inactivation time constant of the outward current, whole-cell patch clamp on CHO cells: 7.17 ms
